Laboratory results as given in paper PMC12884772, “Macrophagic Sclerostin Loop2‐ApoER2 Interaction Required by Sclerostin for Cardiovascular Protective Action” (Advanced Science, 2025).
Like-named read-outs stand apart in the source and are kept apart here.

Molecular target: T1, ApoER2 (Homo sapiens, UniProt Q14114)
T1 construct: purchased R&D 3520‐AR
T1 sequence (Q14114 33-963): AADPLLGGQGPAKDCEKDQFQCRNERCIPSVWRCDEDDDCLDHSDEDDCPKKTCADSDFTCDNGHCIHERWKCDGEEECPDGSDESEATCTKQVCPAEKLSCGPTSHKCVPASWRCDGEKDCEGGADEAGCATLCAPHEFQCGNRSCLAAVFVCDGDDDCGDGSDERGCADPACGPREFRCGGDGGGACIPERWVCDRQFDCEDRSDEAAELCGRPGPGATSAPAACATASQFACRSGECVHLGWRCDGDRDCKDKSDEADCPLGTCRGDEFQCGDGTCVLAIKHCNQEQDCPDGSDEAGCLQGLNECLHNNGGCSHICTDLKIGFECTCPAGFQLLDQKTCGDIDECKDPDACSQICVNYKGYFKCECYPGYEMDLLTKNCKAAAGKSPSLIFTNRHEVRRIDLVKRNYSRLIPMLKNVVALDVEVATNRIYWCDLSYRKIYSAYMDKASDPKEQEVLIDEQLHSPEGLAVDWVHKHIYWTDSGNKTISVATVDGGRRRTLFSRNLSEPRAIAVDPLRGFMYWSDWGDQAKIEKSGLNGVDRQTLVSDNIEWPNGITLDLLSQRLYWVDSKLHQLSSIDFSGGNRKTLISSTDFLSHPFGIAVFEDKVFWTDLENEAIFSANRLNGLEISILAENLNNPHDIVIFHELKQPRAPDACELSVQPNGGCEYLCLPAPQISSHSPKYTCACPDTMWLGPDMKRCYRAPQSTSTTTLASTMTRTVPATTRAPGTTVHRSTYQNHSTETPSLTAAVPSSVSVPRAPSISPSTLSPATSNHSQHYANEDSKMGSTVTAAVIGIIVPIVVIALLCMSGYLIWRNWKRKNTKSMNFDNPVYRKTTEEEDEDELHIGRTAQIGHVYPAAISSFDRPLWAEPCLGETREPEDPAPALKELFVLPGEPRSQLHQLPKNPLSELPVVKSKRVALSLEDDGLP
Experiment: Biolayer interferometry (BLI) binding of ApoER2 and sclerostin / sclerostin loop2
Protocol: The interaction of full‐length (FL)/truncated ApoER2 with full‐length (FL) /truncated sclerostin in macrophages (RAW264.7) were determined by pull‐down assay and Co‐IP assay. The binding affinity of ApoER2 to FL sclerostin and sclerostin loop2 were determined by biolayer interferometry (BLI) analysis. Moreover, the binding of sclerostin to ApoER2 on macrophages (RAW264.7) was examined by confocal microscopy.
Biolayer interferometry (BLI) analysis was performed on the Biomolecular Interaction Analyzer (ForteBio, Octet RED96e). To determine the binding affinity between ApoER2 and sclerostin, the ApoER2 protein (R&D, 3520‐AR) was biotinylated using 10 mM EZ‐Link Sulfo‐NHS‐LC‐LC‐Biotin (Thermo Scientific, 21 343) in a molar ratio of 1:20 for 2 h at 4 °C. The Slide‐A‐Lyzer Dialysis Cassettes (Thermo Scientific, 66 382) were used for excess biotin removal.^[ [61] ^] […] (SA) tray biosensors (Sartorius, 18‐5019) were used to load biotin‐ApoER2 proteins. Biosensors were pre‐wet for 10 min using 200 µL PBS containing 0.02% Tween 20 (v/v) in a 96‐well plate. […] Raw data were analyzed using Data Analysis Software (ForteBio, v8.1). All Kd values were calculated after deducting the non‐specific binding between the biosensors and the samples.^[ [62], [63] ^]

Kd (Figure S6B, Sclerostin – ApoER2, read-out: Kd, binding of sclerostin to ApoER2): 2.1 nM
Kd (Octet RED96e, biotin‐ApoER2 on streptavidin biosensors or His‐ApoER2 on HIS1K biosensors, non‐specific binding deducted, Figure 6B, read-out: Kd, binding of ApoER2 to sclerostin or sclerostin loop2): 3.8 nM
Substance: sclerostin: recombinant human/mouse full‐length sclerostin protein
